B1: Mothers against decapentaplegic homolog 4 (Homo sapiens), Q13485 (parent)
chain: MDNMSITNTPTSNDACLSIVHSLMCHRQGGESETFAKRAIESLVKKLKEKKDELDSLITAITTNGAHPSKCVTIQRTLDGRLQVAGRKGFPHVIYARLWRWPDLHKNELKHVKYCQYAFDLKCDSVCVNPYHYERVVSPGIDLSGLTLQSNAPSSMMVKDEYVHDFEGQPSLSTEGHSIQTIQHPPSNRASTETYSTPALLAPSESNATSTANFPNIPVASTSQPASILGGSHSEGLLQIASGPQPGQQQNGFTGQPATYHHNSTTTWTGSRTAPYTPNLPHHQNGHLQHHPPMPPHPGHYWPVHNELAFQPPISNHPAPEYWCSIAYFEMDVQVGETFKVPSSCPIVTVDGYVDPSGGDRFCLGQLSNVHRTEAIERARLHIGKGVQLECKGEGDVWVRCLSDHAVFVQSYYLDREAGRAPGDAVHKIYPSAYIKVFDLRQCHRQMQQQAATAQAAAAAQAAAVAGNIPGPGSVGGIAPAISLSAAAGIGVDDLRRLCILRMSFVKGWGPDYPRQSIKETPCWIEIHLHRALQLLDEVLHTMPIADPQPLD
partner: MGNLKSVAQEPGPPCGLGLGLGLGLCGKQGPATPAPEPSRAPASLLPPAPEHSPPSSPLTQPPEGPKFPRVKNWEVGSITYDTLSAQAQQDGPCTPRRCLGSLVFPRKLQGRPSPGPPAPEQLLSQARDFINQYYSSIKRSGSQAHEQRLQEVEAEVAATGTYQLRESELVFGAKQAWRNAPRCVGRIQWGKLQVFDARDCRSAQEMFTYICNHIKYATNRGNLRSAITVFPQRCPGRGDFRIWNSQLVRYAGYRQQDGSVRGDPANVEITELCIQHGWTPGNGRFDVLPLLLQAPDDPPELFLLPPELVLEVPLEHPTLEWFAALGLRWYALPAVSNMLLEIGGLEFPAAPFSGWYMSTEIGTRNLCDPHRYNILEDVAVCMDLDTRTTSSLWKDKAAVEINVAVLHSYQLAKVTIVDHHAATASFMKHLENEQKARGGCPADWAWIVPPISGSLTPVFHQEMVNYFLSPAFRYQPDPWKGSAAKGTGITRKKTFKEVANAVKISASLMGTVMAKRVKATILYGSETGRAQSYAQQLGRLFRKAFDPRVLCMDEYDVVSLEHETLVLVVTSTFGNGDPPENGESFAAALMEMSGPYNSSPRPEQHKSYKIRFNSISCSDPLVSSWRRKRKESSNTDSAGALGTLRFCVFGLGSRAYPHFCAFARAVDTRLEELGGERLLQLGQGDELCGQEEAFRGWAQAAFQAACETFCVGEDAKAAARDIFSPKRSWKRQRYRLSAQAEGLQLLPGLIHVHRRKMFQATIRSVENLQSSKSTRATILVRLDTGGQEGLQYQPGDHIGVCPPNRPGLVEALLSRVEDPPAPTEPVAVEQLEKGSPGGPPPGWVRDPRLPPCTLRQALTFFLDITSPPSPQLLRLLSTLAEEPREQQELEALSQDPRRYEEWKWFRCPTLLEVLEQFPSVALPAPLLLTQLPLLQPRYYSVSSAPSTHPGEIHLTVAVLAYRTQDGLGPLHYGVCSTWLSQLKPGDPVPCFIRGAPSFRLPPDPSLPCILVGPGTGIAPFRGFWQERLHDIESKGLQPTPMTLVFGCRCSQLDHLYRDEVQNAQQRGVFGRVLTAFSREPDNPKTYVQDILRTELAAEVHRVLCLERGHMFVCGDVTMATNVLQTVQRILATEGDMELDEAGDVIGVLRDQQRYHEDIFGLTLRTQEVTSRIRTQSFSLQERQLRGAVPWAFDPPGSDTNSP
B2: Mothers against decapentaplegic homolog 4 (Homo sapiens), Q13485 (parent)
chain: B1 chain
partner: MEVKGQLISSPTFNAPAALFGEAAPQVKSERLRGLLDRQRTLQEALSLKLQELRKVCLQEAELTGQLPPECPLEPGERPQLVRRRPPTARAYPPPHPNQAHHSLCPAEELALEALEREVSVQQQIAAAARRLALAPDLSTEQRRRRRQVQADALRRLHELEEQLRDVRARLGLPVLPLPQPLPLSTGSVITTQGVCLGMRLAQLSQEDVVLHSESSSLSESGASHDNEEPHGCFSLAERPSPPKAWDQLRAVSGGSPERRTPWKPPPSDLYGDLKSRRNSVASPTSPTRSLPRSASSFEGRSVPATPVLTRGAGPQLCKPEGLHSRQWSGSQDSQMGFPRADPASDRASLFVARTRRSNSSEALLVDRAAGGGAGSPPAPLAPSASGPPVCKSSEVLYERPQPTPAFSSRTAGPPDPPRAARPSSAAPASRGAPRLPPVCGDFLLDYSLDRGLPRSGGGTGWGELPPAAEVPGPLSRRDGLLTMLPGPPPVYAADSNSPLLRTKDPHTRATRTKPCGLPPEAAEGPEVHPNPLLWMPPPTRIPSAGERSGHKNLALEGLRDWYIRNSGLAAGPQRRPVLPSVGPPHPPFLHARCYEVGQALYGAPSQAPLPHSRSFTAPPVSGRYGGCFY
B3: Mothers against decapentaplegic homolog 4 (Homo sapiens), Q13485 (parent)
chain: B1 chain
partner: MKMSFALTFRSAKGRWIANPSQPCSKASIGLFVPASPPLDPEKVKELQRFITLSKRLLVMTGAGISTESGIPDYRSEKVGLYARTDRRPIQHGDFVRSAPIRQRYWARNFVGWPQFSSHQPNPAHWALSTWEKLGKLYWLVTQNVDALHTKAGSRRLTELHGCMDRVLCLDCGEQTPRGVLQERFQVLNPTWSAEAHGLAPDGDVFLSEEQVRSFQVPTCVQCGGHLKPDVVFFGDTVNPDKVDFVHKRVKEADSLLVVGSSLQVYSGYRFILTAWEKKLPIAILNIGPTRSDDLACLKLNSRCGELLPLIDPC
B4: Mothers against decapentaplegic homolog 4 (Homo sapiens), Q13485 (parent)
chain: B1 chain
partner: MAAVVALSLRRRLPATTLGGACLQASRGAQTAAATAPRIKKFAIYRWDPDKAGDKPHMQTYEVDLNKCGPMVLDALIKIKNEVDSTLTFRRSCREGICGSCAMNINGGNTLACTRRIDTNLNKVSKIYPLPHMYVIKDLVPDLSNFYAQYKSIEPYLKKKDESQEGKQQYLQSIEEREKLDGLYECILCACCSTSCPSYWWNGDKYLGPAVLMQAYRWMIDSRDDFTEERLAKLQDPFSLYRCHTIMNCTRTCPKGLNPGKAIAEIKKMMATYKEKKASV
B5: Mothers against decapentaplegic homolog 4 (Homo sapiens), Q13485 (parent)
chain: B1 chain
partner: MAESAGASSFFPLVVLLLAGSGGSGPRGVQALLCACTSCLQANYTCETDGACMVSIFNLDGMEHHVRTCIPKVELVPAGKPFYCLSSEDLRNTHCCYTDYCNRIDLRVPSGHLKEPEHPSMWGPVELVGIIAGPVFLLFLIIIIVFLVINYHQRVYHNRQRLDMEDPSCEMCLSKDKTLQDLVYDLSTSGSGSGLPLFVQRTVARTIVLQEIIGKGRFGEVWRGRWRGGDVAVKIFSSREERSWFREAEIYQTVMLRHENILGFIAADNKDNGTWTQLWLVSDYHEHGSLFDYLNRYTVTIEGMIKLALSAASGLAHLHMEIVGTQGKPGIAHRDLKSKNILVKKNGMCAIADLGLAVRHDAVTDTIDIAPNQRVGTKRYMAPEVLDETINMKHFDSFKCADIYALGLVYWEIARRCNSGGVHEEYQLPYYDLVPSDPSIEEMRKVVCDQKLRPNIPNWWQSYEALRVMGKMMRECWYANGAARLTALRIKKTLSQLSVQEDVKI

Variants of: B1
Conditions: with nos3_human NOS3, P29474

| Variant | effect of a mutation on the interaction |
| --- | --- |
| R361H | with no effect |

Variants of: B1
Conditions: with nos3_human NOS3, P29474
Remark: another data set of the same source

| Variant | effect of a mutation on the interaction |
| --- | --- |
| G386D | with no effect |

Variants of: B1
Conditions: with nos3_human NOS3, P29474
Remark: another data set of the same source

| Variant | effect of a mutation on the interaction |
| --- | --- |
| G386D | increasing interaction strength |

Variants of: B2
Conditions: with cc120_human CCDC120, Q96HB5

| Variant | effect of a mutation on the interaction |
| --- | --- |
| G386D | with no effect |

Variants of: B2
Conditions: with cc120_human CCDC120, Q96HB5
Remark: another data set of the same source

| Variant | effect of a mutation on the interaction |
| --- | --- |
| G386D | increasing interaction strength |

Variants of: B2
Conditions: with cc120_human CCDC120, Q96HB5
Remark: another data set of the same source

| Variant | effect of a mutation on the interaction |
| --- | --- |
| R361C | with no effect |

Variants of: B3
Conditions: with sir4_human SIRT4, Q9Y6E7

| Variant | effect of a mutation on the interaction |
| --- | --- |
| G386D | with no effect |

Variants of: B4
Conditions: with sdhb_human SDHB

| Variant | effect of a mutation on the interaction |
| --- | --- |
| R361C | with no effect |

Variants of: B4
Conditions: with sdhb_human SDHB
Remark: another data set of the same source

| Variant | effect of a mutation on the interaction |
| --- | --- |
| G386D | with no effect |

Variants of: B4
Conditions: with sdhb_human SDHB
Remark: another data set of the same source

| Variant | effect of a mutation on the interaction |
| --- | --- |
| G386D | increasing interaction strength |

Variants of: B5
Conditions: with acv1b_human ACVR1B

| Variant | effect of a mutation on the interaction |
| --- | --- |
| R361H | with no effect |

From IntAct's records for PubMed 35512704
